# Measured values published in US20050164339.
# T1: His6-LctA modified by LctM
# T1 chain: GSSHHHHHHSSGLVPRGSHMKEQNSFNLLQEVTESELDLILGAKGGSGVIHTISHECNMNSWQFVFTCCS
# T2: LctMutA
# T2 chain: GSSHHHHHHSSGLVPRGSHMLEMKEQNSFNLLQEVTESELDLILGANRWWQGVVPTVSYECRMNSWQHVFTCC
# T3: His6-LctA
# T3 chain: T1 chain
# B1: GST-Lpd (protein)
# chain: MKIVLQNNEQDCLLACYSMILGYFGRDVAIHELYSGEMIPPDGLSVSYLKNINMKHQVSMHVYKTDKKNSPNKIFYPKMLPVIIQWNDNHFVVVTKIYRKNVTLIDPAIGKVKYNYNDFMKKFSGYIITLSPNSSFTKKKRISEIIFPLK
# B2: Endoproteinase Lys-C from Lysobacter enzymogenes (protein)
# chain: GVSGSCNIDVVCPEGNGHRDVIRSVAAYSKQGTMWCTGSLVNNSANDKKMYFLTANHCGMTTAAIASSMVVYWNYQNSTCRAPGSSSSGANGDGSLAQSQTGAVVRATNAASDFTLLELNTAANPAYNLFWAGWDRRDQNFAGATAIHHPNVAEKRISHSTVATEISGYNGATGTSHLHVFWQASGGVTEPGSSGSPIYSPEKRVLGQLHGGPSSCSATGADRSDYYGRVFTSWTGGGTSATRLSDWLDAAGTGAQFIDGLDSTGTPPV
# Experiments:
# [1] = target: T1, His6-LctA modified by LctM
# LctMutA = target: T2, LctMutA
# His6-LctA = target: T3, His6-LctA
Protein,proteolytic cleavage of the leader (MALDI-TOF MS; sensitivity of indicator strain L. lactis 117) [1],removal of the leader peptide (LctMutA),proteolytic cleavage of the leader (MALDI-TOF MS) (His6-LctA),proteolytic cleavage (MALDI-MS) [1]
B1,Both unmodified and modified His-LctA were substrates for GST-Lpd,the protease domain of LctT can remove the leaser peptide and the His-tag,Both unmodified and modified His-LctA were substrates for GST-Lpd,
B2,,,,cleavage of the amide bond between Lys25 and Gly26 and removal of the leader sequence and the His6-tag
